Results as given in the supplement of paper PMC9732359.
± gives the uncertainty stated by the source.

Assay: protein stability index of a GFP-peptide fusion (yeast GPS) (PSI 1-4); higher = more stable; sorted into four equal gates, so the index is relative within each strain
Method in brief: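 For each peptide, the protein stability index sums the read frequency in every gate after multiplying it by the gate number. Read frequencies came from plasmids that were PCR-amplified from each gate and Illumina-sequenced, with reads assigned to strains by barcodes. The gates were four equal bins of GFP/Cherry fluorescence ratio applied to mid-log yeast in leucine-free medium carrying a pooled library of tiled 17-residue yeast protein peptides fused downstream of GFP on a Cherry-expressing plasmid.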

Sequence | protein stability index (doa10∆) | protein stability index (pdr5∆) | protein stability index (san1∆) | protein stability index (ubr1∆)
QNHNSKSTDNSAIRQVF [IRR1] | 2.61 ± 0.039 | 2.8 ± 0.037 | 2.85 ± 0.042 | 2.739 ± 0.027
DTSNWELSDSWRAHDSS [YGL100W/SEH1] | 3.29 ± 0.068 | 3.37 ± 0.058 | 3.4 ± 0.036 | 3.31 ± 0.037
LGDKELWPVAIGLIALS [YJR042W/NUP85] | 1.57 ± 0.17 | 1.65 ± 0.15 | 1.64 ± 0.27 | 1.73 ± 0.16
NLQAKPLVGKPKTELTK [YAR002W/NUP60] | 2.72 ± 0.098 | 2.52 ± 0.067 | 2.7 ± 0.088 | 2.39 ± 0.1
LISLIMTTWRKLYTKEL [YMR129W/POM152] | 2.35 ± 0.092 | 1.15 ± 0.093 | 1.42 ± 0.17 | 1.16 ± 0.044
QEGKISSVYRLKFAVQV [RPL26A] | 3.09 ± 0.089 | 3.25 ± 0.11 | 3.1 ± 0.095 | 3.76 ± 0.12
IQELEDQRDELLEQKKS [ITC1] | 3.21 ± 0.067 | 3.11 ± 0.055 | 3.24 ± 0.045 | 3.31 ± 0.061
TLTASPDGTLIASAGKD [ASC1] | 2.86 ± 0.093 | 3.19 ± 0.1 | 3.12 ± 0.065 | 3.14 ± 0.063
DPRNLVNQTGSTKKDTV [YCG1] | 2.9 ± 0.097 | 3.15 ± 0.084 | 2.53 ± 0.075 | 2.86 ± 0.039
NGEEDEVALFSQKAKLM [YLR335W/NUP2] | 1.16 ± 0.17 | 1.16 ± 0.13 |  | 1.17 ± 0.094
KTLTEEVTKSSHVENLE [YIL149C/MLP2] | 2.81 ± 0.053 | 2.94 ± 0.053 | 2.86 ± 0.051 | 3.13 ± 0.035
IDEPIKSIMDGIHDGHI [FAS1] | 1.97 ± 0.044 | 1.87 ± 0.059 | 1.52 ± 0.094 | 1.57 ± 0.038
HRLKLCKSLISENEDTK [CSE2] | 2.91 ± 0.17 | 3.24 ± 0.27 | 2.42 ± 0.2 | 
SFDFGNENEDEDEGTLN [ARP9] | 3.56 ± 0.14 | 3.38 ± 0.25 | 3.41 ± 0.1 | 
IMKIGGIKLQMQNSKVE [SMC4] | 2.11 ± 0.13 | 1.82 ± 0.1 | 2.25 ± 0.12 | 2.1 ± 0.12
GSSNKAVVQTVKGLLNT [YJL039C/NUP192] | 3.27 ± 0.14 | 3.13 ± 0.11 | 2.59 ± 0.11 | 3.07 ± 0.098
RYADAGNIDTKNNILGS [RRP43] | 3.31 ± 0.062 | 3.06 ± 0.05 | 3.12 ± 0.039 | 3.04 ± 0.049
FDQSTNVKVIMATNRAD [RPT3] | 2.12 ± 0.054 | 2.15 ± 0.053 | 1.52 ± 0.074 | 2.02 ± 0.051
KVSSAEYYAKKRAFTKK [RPL16A] | 3 ± 0.098 | 3.32 ± 0.099 | 2.98 ± 0.092 | 3.36 ± 0.082
ALDFRNVSIVANYIKER [SMC4] | 1.51 ± 0.069 | 2.04 ± 0.058 | 1.51 ± 0.11 | 1.82 ± 0.058
PSLRKLIESGIGTHHAG [BRR2] | 3.16 ± 0.19 | 3.38 ± 0.28 | 3.11 ± 0.2 | 3.64 ± 0.13
VVEEFTPVVLATPIPEE [RPS5] | 2.69 ± 0.13 | 2.27 ± 0.069 | 2.13 ± 0.056 | 2.17 ± 0.049
PQRLQRKRHQRALKVRN [RPS6A] | 2.96 ± 0.1 | 2.9 ± 0.069 | 2.64 ± 0.096 | 2.87 ± 0.046
KSMASAFGVSVAFLDND [RPN7] | 3.04 ± 0.091 | 3.08 ± 0.093 | 3.01 ± 0.066 | 3.24 ± 0.062
FSYQEVEFKLPKELVPS [CDC53] | 2.13 ± 0.056 | 2.16 ± 0.045 | 2.07 ± 0.076 | 1.91 ± 0.047
GGLKNGVLYQGNIQISE [DIS3] | 3.25 ± 0.098 | 3.27 ± 0.085 | 2.9 ± 0.072 | 3.17 ± 0.065

Sequence | protein stability index (doa10∆) | protein stability index (pdr5∆) | protein stability index (san1∆) | protein stability index (ubr1∆)
KESWDPNTTKTKLRAFV [YGR119C/NUP57] | 3.5 ± 0.22 | 2.93 ± 0.19 | 3.37 ± 0.12 | 2.77 ± 0.1
TVSRAYGGSRCANCVKE [RPL34A] | 2.4 ± 0.071 | 2.96 ± 0.068 | 2.43 ± 0.1 | 2.19 ± 0.043
SDSLGPDTSNEICDLAY [SRB2] | 2.95 ± 0.065 | 3.17 ± 0.064 | 3.29 ± 0.065 | 3.31 ± 0.049
VHKERHDGGFDLVHIKD [RPS4A] | 1.48 ± 0.084 | 1.94 ± 0.069 | 1.61 ± 0.15 | 1.84 ± 0.05
PTSDEPVPESAGKADTS [SRB4] | 2.86 ± 0.085 | 3.07 ± 0.092 | 2.88 ± 0.065 | 3.07 ± 0.045
INNNINIPQQQQMQPPN [GAL11] | 2.58 ± 0.07 | 2.87 ± 0.073 | 2.83 ± 0.049 | 2.84 ± 0.056
YRCFAQLELRQLNASIS [RRI2] | 3.06 ± 0.2 | 3.24 ± 0.2 | 3.12 ± 0.16 | 3.39 ± 0.17
FQAVIQKSINHPPDFKR [SNF2] | 2.8 ± 0.12 | 2.98 ± 0.19 | 3.02 ± 0.14 | 3.19 ± 0.11
ESGSTPISISNAPTFNP [YAR002W/NUP60] | 2.25 ± 0.067 | 2.64 ± 0.061 | 1.98 ± 0.077 | 2.63 ± 0.058
LVDNLNAEVVAGNIKCR [BRR2] | 1.79 ± 0.087 | 1.67 ± 0.07 | 1.72 ± 0.14 | 1.45 ± 0.075
CANKYMTTVSGRDAFHL [RPL10] | 2.24 ± 0.24 | 2.64 ± 0.15 | 1.74 ± 0.2 | 1.92 ± 0.1
RYIWRSLKDLSSLRNQE [RPN3] | 2.77 ± 0.14 |  | 2.85 ± 0.094 | 
DFKEVEDFLHFIVAEYI [SRB4] | 2.73 ± 0.071 | 3.22 ± 0.11 | 3.13 ± 0.056 | 3.14 ± 0.056
SQAFDIVAALPISEKGL [RPP1] | 2.85 ± 0.18 | 3.02 ± 0.2 | 2.66 ± 0.18 | 2.66 ± 0.15
YGILSIDDLIHEIITVG [RPL7A] | 2.36 ± 0.079 | 2.37 ± 0.1 | 2.58 ± 0.11 | 1.56 ± 0.061
RKWVIFITKHLPLLILE [NUT1] | 1.7 ± 0.067 | 1.25 ± 0.045 | 1.21 ± 0.1 | 1.2 ± 0.03
YRRALQSSESFDDSDIT [YML103C/NUP188] | 1.89 ± 0.056 | 2.36 ± 0.059 | 2.16 ± 0.058 | 2.46 ± 0.047
LKKGEVSLGTSIMAVTF [PRE3] |  | 1.67 ± 0.23 | 1.13 ± 0.18 | 1.13 ± 0.18
ITVRYWLNGKMDSKGKI [RGR1] | 3.27 ± 0.14 | 3.51 ± 0.15 | 3.31 ± 0.23 | 
IRCHREDCDLVIMALML [POP5] | 2.45 ± 0.053 | 2.65 ± 0.064 | 2.01 ± 0.091 | 2.81 ± 0.047
VRSFSKALDELKPEIEK [LRP1] | 3.39 ± 0.088 | 3.39 ± 0.074 | 3.31 ± 0.052 | 3.22 ± 0.064
LYQSKGRYMEALALYVD [SRP68] | 1.86 ± 0.076 | 1.9 ± 0.14 | 1.9 ± 0.15 | 2 ± 0.11
AMEFIFGNSLICEDPET [SMC2] | 2.38 ± 0.073 | 2.25 ± 0.054 | 1.37 ± 0.094 | 1.88 ± 0.049
LEDFENFKGLAKEKERM [YIL149C/MLP2] | 3.41 ± 0.075 | 3.51 ± 0.085 | 3.42 ± 0.054 | 3.35 ± 0.083
HLGCVPIGEAGDFGGWF [RIP1] | 2.81 ± 0.12 | 3.08 ± 0.11 | 2.7 ± 0.11 | 3.06 ± 0.14
